Assay results from patent publication US12269859B2, “Synthetic immune receptors and methods of use thereof” (Angeles Therapeutics, Inc., priority 2016, dated 2025).

B1: 022817-J01 (protein)
chain: MALPVTALLLPLALLLHAARPLEGKPIPNPLLGLDSTGSGEDLKNVFPPEVAVFEPSKAEIAHTQKATLVCLATGFYPDHVELSWWVNGKEVHSGVCTDPQPLKEQPALNDSRYCLSSRLRVSATFWQNPRNHFRCQVQFYGLSENDEWTQDRAKPVTQIVSAEAWGRADCGITSASYHQGVLSATILYEILLGKATLYAVLVSALVLMAMVKRKDSRGRAKRSGSGATNFSLLKQAGDVEENPGPTSMALPVTALLLPLALLLHAARPQIVLTQSPATLSASPGEKATMTCSASSGVNYMHWYQQKPGTSPKRWIYDTDKTASGVPARFSGSGSGTSYSLTISSMEAEDAATYYCHQRGSYTFGGGTKLEIKGGGGSGGGGSGGGGSQVQLEQPGAEVVKPGASVKVSCKTSGYTFTSNWMHWVKQTPGKGLEWIGEIDPSDSYTNYNQKFDGKAKLTVDKSSSTAYMEVSDLTAEDSATYYCARGSNPYYYAMDYWGQGTSVTVSSTREQKLISEEDGSGIQNPDPAVYQLRDSKSSDKSVCLFTDFDSQTNVSQSKDSDVYITDKCVLDMRSMDFKSNSAVAWSNKSDFACANAFNNSIIPEDTFFPSSDVPCDVKLVEKSFETDTNLNFQNLSVIGFRILLLKVAGFNLLMTLRLWSSRAKRSGSGVKQTLNFDLLKLAGDVESNPGPSRGHMTEYKPTVRLATRDDVPRAVRTLAAAFADYPATRHTVDPDRHIERVTELQELFLTRVGLDIGKVWVADDGAAVAVWTTPESVEAGAVFAEIGPRMAELSGSRLAAQQQMEGLLAPHRPKEPAWFLATVGVSPDHQGKGLGSAVVLPGVEAAERAGVPAFLETSAPRNLPFYERLGFTVTADVEVPEGPRTWCMTRKPGA
B2: 022817-K08 (protein)
chain: MALPVTALLLPLALLLHAARPQIVLTQSPATLSASPGEKATMTCSASSGVNYMHWYQQKPGTSPKRWIYDTDKTASGVPARFSGSGSGTSYSLTISSMEAEDAATYYCHQRGSYTFGGGTKLEIKLEEQKLISEEDLGSGEDLKNVFPPEVAVFEPSKAEIAHTQKATLVCLATGFYPDHVELSWWVNGKEVHSGVCTDPQPLKEQPALNDSRYCLSSRLRVSATFWQNPRNHFRCQVQFYGLSENDEWTQDRAKPVTQIVSAEAWGRADCGITSASYHQGVLSATILYEILLGKATLYAVLVSALVLMAMVKRKDSRGRAKRSGSGATNFSLLKQAGDVEENPGPTSMDWIWRILFLVGAATGAHSFEQVQLEQPGAEVVKPGASVKVSCKTSGYTFTSNWMHWVKQTPGKGLEWIGEIDPSDSYTNYNQKFDGKAKLTVDKSSSTAYMEVSDLTAEDSATYYCARGSNPYYYAMDYWGQGTSVTVSSTREQKLISEEDLGSGIQNPDPAVYQLRDSKSSDKSVCLFTDFDSQTNVSQSKDSDVYITDKCVLDMRSMDFKSNSAVAWSNKSDFACANAFNNSIIPEDTFFPSSDVPCDVKLVEKSFETDTNLNFQNLSVIGFRILLLKVAGFNLLMTLRLWSSRAKRSGSGVKQTLNFDLLKLAGDVESNPGPSRGHMTEYKPTVRLATRDDVPRAVRTLAAAFADYPATRHTVDPDRHIERVTELQELFLTRVGLDIGKVWVADDGAAVAVWTTPESVEAGAVFAEIGPRMAELSGSRLAAQQQMEGLLAPHRPKEPAWFLATVGVSPDHQGKGLGSAVVLPGVEAAERAGVPAFLETSAPRNLPFYERLGFTVTADVEVPEGPRTWCMTRKPGA

Test system: target antigen-expressing cell line
Experiment: Jurkat NFAT-GFP assay, coculture with target cell lines expressing the respective target antigen (summary Table 10A)
Type: cell-based, human
Design: key: The signs +/−, +, 2+ etc. after the name of the cell lines indicate the relative degree of positivity on the Jurkat-NFAT-GFP assay as measured by the % GFP positive cells; +: relative degree of positivity on the Jurkat-NFAT-GFP assay as measured by the % GFP positive cells; 2+: relative degree of positivity on the Jurkat-NFAT-GFP assay as measured by the % GFP positive cells
Conditions: relative % GFP positive cells; for NFAT-GFP ASSAY Positive Cell lines: NALM6: SIR-expressing Jurkat-NFAT-GFP cells cocultured with NALM6; for NFAT-GFP ASSAY Positive Cell lines: RAJI: SIR-expressing Jurkat-NFAT-GFP cells cocultured with RAJI
How it was run: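 Stable SIR expression in Jurkat-NFAT-GFP cells by lentiviral transfer and puromycin selection; coculture with target cells (E:T approximately 1:2) for 4 to 18 hours; flow cytometric measurement of NFAT-driven GFP; scoring as positive when % GFP-positive cells exceeds that of parental reporter cells.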

Row | Molecule | NFAT-GFP ASSAY Positive Cell lines: NALM6 | NFAT-GFP ASSAY Positive Cell lines: RAJI
1 | B1 | (+/−) | RAJI (+), NALM6
2 | B2 | (+/−) | RAJI (+), NALM6
